We go through twelve sequences from the supplement of paper PMC9170038.

The subject of the series is MS2 coat protein. Briefly: apparent KD of MS2 coat protein; designed switch direction (-1 OFF switch, 1 ON switch): 1; higher = weaker reporter binding. The gist of the method: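 The reported apparent KD is a per-design median over clusters, from curve fits of normalised cluster fluorescence. Protein titrations used SNAP-549-labelled MS2 coat protein, doubled from 0.7 or 1.5 nM to 3 µM, in Tris-HCl pH 7.5 buffer with KCl, MgCl2, BSA, DTT, tRNA and Tween-20, with no input, 200 uM small-molecule ligand, or an oligonucleotide input. The RNA switches were transcribed on Illumina chips by stalled E. coli RNA polymerase.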

The mark [1] stands for this setting: input ligand: microRNA oligo, concentration not stated.
Where [2] appears, read: Eterna round: R95, input ligand: FMN 200 uM.
Where [3] appears, read: Eterna round: R95, input ligand: microRNA oligo, concentration not stated.
The mark [4] stands for this setting: Eterna round: R95, input ligand: none.

Regarding “UAGCAGUGCGGGUAGGAUAUGUAGGGUGGUACAUGAGGAUCACCCAUGUAUCCACCCUUCGACCGGCAGAAGGGCCUGUCACUGC [Edor] (Eterna round: R96, puzzle: Same State 2)”, the “apparent KD of MS2 coat protein” value under setting [1] turned out to be 13.2 nM.
For “UCUUGGUUUUUGCUCGUUUUUUGUGUUGAACAUGAGGAUCACCCAUGUAUUGUACGGUCCAAUUUAAUAGUGGUCCG [JMF 24] (puzzle: Sensor for hsa-mir-208a)”, the “apparent KD of MS2 coat protein” value is, setting by setting: under setting [2], 25.5 nM; under setting [3], 15.3 nM; under setting [4], 28 nM.
Turning to “UAUUAGAUCCGAGGAUAUCCUUUUUUCUUACAUGAGGAUCACCCAUGUAAAGGGAUUGAGUUGUAGGAGAAGGCGGAUUUAGUU [JR_SSNG2_Sub058] (Eterna round: R96, puzzle: Same State NG 2)”, the “apparent KD of MS2 coat protein” value under setting [1] is 24.1 nM.
With “GGCACAGCGUGAGGAUAUCGGUACGCACGUAGUCGAGAAGGUACCUGAAAUGGUACACAUGAGGAUCACCCAUGUGACUGGGCA [Eternabot solution 14] (Eterna round: R96, puzzle: Same State NG 1)”, the “apparent KD of MS2 coat protein” value by setting is: (input ligand: FMN 200 uM) 40.7 nM; under setting [1], 27.1 nM; (input ligand: none) 41.6 nM.
For “GACAGGCAGGCUUUUUCCUCGUAGUGUAAACAUGAGGAUCACCCAUGUGCUCGCCCUGGAUCUUUGGAUCGCAGGAA [Tibeon] (puzzle: Sensor for hsa-mir-208a)”, the “apparent KD of MS2 coat protein” value under setting [2] was 353 nM, the “apparent KD of MS2 coat protein” value under setting [3] turned out to be 124 nM and the “apparent KD of MS2 coat protein” value under setting [4] was found to be 407 nM.
The like results for “GGAGCCGGUACUGAGGAUAUUCGUAUUAAAACAUGAGGAUCACCCAUGUAGGCCAGAAGGCCUUGGGAGAAGGCAGACCAGCUCG [Atgexeedri - 5] (puzzle: Same State 2)” were, in that order, 14.3 nM, 26 nM and 40.5 nM.
For the sequence “GCGGUCUGACAUGAGGAUCACCCAUGUGGAAUAAAUACGGGUUAGGAUAUCUUGAGGAUCACCCAAGAGAAGGGAUGGACCGCU (Eterna round: R96, puzzle: Same State NG 3)”, the “apparent KD of MS2 coat protein” value (input ligand: FMN 200 uM) was determined as 32.1 nM, the “apparent KD of MS2 coat protein” value under setting [1] came to 22.8 nM and the “apparent KD of MS2 coat protein” value (input ligand: none) was 38.4 nM.
The matching figures for “GGAAUAUUUACAGGAUAUGAGUUGUAAAGUCGAUCAGAAGGGUAGGUGUCUUGCACGGUGUGUUACAUGAGGAUCACCCAUGUU [SameState NG1 #21] (Eterna round: R96, puzzle: Same State NG 1)”: 156 nM, 116 nM and 128 nM.
As to “AACAUUCUAUCUGAGGAUAUCAUGAAAUAAACAUGAGGAUCACCCAUGUGCAGGAAAACUGCAUAUGAGAAGGCAGAUAGAUUGA [salish99_ss2_r3_022] (puzzle: Same State 2)”, the “apparent KD of MS2 coat protein” value is 44.9 nM under setting [2], 1870 nM under setting [3] and 3320 nM under setting [4].
The like results for “AACAAUCUAUCUGAGGAUAUCAUGAUAAGAACAUGAGGAUCACCCAUGUGCAGGAAAACUGCAUAUGAGAAGGCAGAUAGAUUGG [Mat - Same State 2 - Mod - D19] (puzzle: Same State 2)” were, in that order, 42.5 nM, 492 nM and 472 nM.
In the case of “AGCUAUUAAUCAGGAUAUGGUCACAUGAGGAUCACCCAUGUAACGAUGAUAUAAUGUGGUCAAAACUAGAAGGGAUUGCUAACA [SameState NG2 #65] (Eterna round: R96, puzzle: Same State NG 2)”, the “apparent KD of MS2 coat protein” value was 341 nM (input ligand: FMN 200 uM), 216 nM under setting [1] and 290 nM (input ligand: none).
The like results for “AACAUGUGGUGUCACAUGAGGAUCACCCAUGUGGUAAAACCUGAGGAUAUAACGAACCAAAUCAAUUAGAAGGUAGGAUCACAA [AK SSNG3-V2-18] (Eterna round: R96, puzzle: Same State NG 3)” were, in that order, 59.7 nM, 46.5 nM and 64.2 nM.
